In article PMC10953402, “Structure and Function of the α‐Hydroxylation Bimodule of the Mupirocin Polyketide Synthase” (Angewandte Chemie (International Ed. in English), 2023):

What was measured:
[1] = biological target: the molecule itself; assay: SEC; purified MupA alone, at higher concentrations (>2 mg/ml)
[2] = biological target: the molecule itself; assay: SEC; purified MupA alone, at the lower concentrations (not above 2 mg/ml)
[3] = biological target: the molecule itself; assay: not stated; purification of recombinant Fre (Figure S6); how the dimer was shown is not told

B1: MupA (enzyme, Pseudomonas fluorescens, UniProt Q9AH80 1-369, looked up)
chain: MSVEQLLGLGVTNAARAPRQPAFSLLFFSDVREDISASEKYEFARSLTLFGDAQGFEAVYFPERHFHEFGAIYPDSAVMAASLIPQTRHIRFRTAGISLPLHHPARVVESWSMNDVLSGGRVDLGFGSGWSRPDFLLAPHAYEDRREVMWQRIEQVRRLWAGERLSFPGPGGDPVSVVTFPRPLQTSLNVWILVAQNTESFIAAGKAGFNVFTMLYGIDLPDLAEKIGLYRQARRDAGFDPASGRVTLMLHTLVGPDSAWVRRAVEAPFKDYIRSSLVAHMKARATPDGRPLDATEQENVLQYAFERYYETGALFGTVDEVRYRVGQVLETGVDEIACLMDFGVDYAVVHQSLPYLEQLVASFQERSAQ
notes: MupA, predicted FMNH2-dependent monooxygenase of the mupirocin biosynthetic gene cluster of Pseudomonas fluorescens NCIMB 10586; Dimer by SEC, dimer of dimers above 2 mg/ml; Used unlabelled in the NMR titrations; they may stand in the Supporting Information; also called flavin-dependent monooxygenase MupA; FMO; source: cloned, over-expressed and purified to homogeneity
- stoichiometry N [1]: 4
- stoichiometry N [2]: 2

B2: Fre (enzyme, E. coli, UniProt P0AEN1 1-233, looked up)
chain: MTTLSCKVTSVEAITDTVYRVRIVPDAAFSFRAGQYLMVVMDERDKRPFSMASTPDEKGFIELHIGASEINLYAKAVMDRILKDHQIVVDIPHGEAWLRDDEERPMILIAGGTGFSYARSILLTALARNPNRDITIYWGGREEQHLYDLCELEALSLKHPGLQVVPVVEQPEAGWRGRTGTVLTAVLQDHGTLAEHDIYIAGRFEMAKIARDLFCSERNAREDRLFGDAFAFI
notes: NAD(P)H:flavin oxidoreductase Fre of E. coli (GenBank M61182); Purified as the expected dimer; also called oxidoreductase Fre; E. coli Fre; source: E. coli, overexpressed, purified
- stoichiometry N [3]: 2
